The results in this text go back to patent publication US20150335719A1, “Intravitreal Injection of a Chimeric Phage Endolysin Ply187; Protection from Staphylococcus aureus Endophthalmitis” (priority 2014, published 2015).

The subject of this experiment is neutrophil (PMN) infiltration in retina/vitreous. The experiment in a line: Mouse S. aureus endophthalmitis: PMN infiltration by flow cytometry (CD45/Ly6G). It is filed as in vivo, C57BL/6 mice. To be noted: vs vehicle-treated/control eyes, 24 h post treatment. As for the experimental part:
FIG. 6 depicts infiltration of polymorphonuclear cells (PMNs) in the Ply187AN-KSH3b-treated mouse retina/vitreous cavity. Infected eyes were given intravitreal injections of either EB or chimeric Ply187AN-KSH3b for either 6 or 12 h post infection. Twenty four hour post Ply187AN-KSH3b treatment, the eyes (n=6) were enucleated and the retina/vitreous humor from two eyes were pooled to make single-cell suspensions. The cells were stained with anti-CD45 and anti-Ly6G mAbs. Post-acquisition, the cells were size-gated to differentiate them from debris. The percentage of dually positive PMNs was determined using a CD45-versus-Ly6G dot plot (upper-right quadrant). The data are summarized in a bar graph representative of duplicate experiments. *p<0.05 (student t-test)
Following euthanasia, the retinas were isolated from the eyes as described by Skeie et al. (2011. J. Vis. Exp. 50:2795) and were digested in Accumax (Millipore, Billerica, Mass.) for 10 min at 37° C. Retinas from two eyes were pooled together to obtain a sufficient number of cells. Following digestion, the retinal tissue was passed through a 23-gauge needle & syringe and filtered through a 40 μm cell strainer (BD Falcon, San Jose, Calif.). […] After subsequent washing steps, the cells were acquired on an Accuri C6 flow cytometer (Accuri, Ann Arbor, Mich.), and the data were analyzed using Accuri C6 software (Accuri, Ann Arbor, Mich.).

Several values for one entry are separate records, joined by “and”; a condition that tells them apart may be missing. Identical values can stand only once.

B1: Ply187AN-KSH3b: staphylococcal peptidoglycan hydrolase fusion protein: endopeptidase domain of prophage endolysin Ply187 plus SH3b cell wall-binding domain of phage K endolysin LysK (SEQ ID NO:1) (protein)
chain: MALPKTGKPTAKQVVDWAINLIGSGVDVDGYYGRQCWDLPNYIFNRYWNFKTPGNARDMAWYRYPEGFKVFRNTSDFVPKPGDIAVWTGGNYNWNTWGHTGIVVGPSTKSYFYSVDQNWNNSNSYVGSPAAKIKHSYFGVTHFVRPAYKAEPKPTPPLESTPATRPVTGSWKKNQYGTWYKPENATFVNGNQPIVTRIGSPFLNAPVGGNLPAGATIVYDEVCIQAGHIWIGYNAYNGNRVYCPVRTCQGVPPNQIPGVAWGVFKVEHHHHHH
modifications: Chemically Synthesized Fusion Protein
B1: the “reduction in neutrophil (PMN) infiltration” value was 40-50% and ~50%.
